Data taken from PMC12327617.

Target: myeloperoxidase (MPO), two subunits MPOα and MPOβ (human (endogenous in HL-60))
Assay: co-IP; anti-MPO-coated magnetic beads with HL-60 NET extract; H3.1-nucleosomes left after the IP quantified with the H3.1-nucleosome immunoassay, depletion against the unprocessed sample

H3.1-nucleosomes (nucleosomes containing the histone variant H3.1) of NETs (from UniProt P68431 1-136; P62805 1-103; P0C0S8 1-130; P62807 1-126) (complex)
percent depletion of H3.1-nucleosomes after IP anti-MPO: 30%
